Results: patent publication US20100323955A1, “METHODS FOR TREATING OBESITY AND OBESITY RELATED DISEASES AND DISORDERS” (AMYLIN PHARMACEUTICALS, INC., priority 2007, published 2010)

Key:
[1] = Example 3: leptin effect on body weight in normal HSD versus DIO prone rats; type: in vivo, rat; settings: FIG. 9
Excerpt: Normal, lean HSD rats were divided into two treatment groups. […] […] The DIO prone animals described herein appear resistant to the weight reducing effect of leptin.

[2] = Example 8: 24-week randomized, double-blind clinical study of pramlintide and metreleptin in overweight and obese subjects; type: in vivo, human; settings: 4-week lead-in; all subjects received pramlintide 180 then 360 mcg BID; columns name the later randomization groups
Protocol: To evaluate inter alia the safety, tolerability and effect of the combination of an amylin agonist (pramlintide) and a leptin (metreleptin) on changes in body weight, a 24-week, randomized, double-blind, active-drug-controlled, multicenter study was conducted under USFDA approved protocols. Secondary objectives of the study were the determination of the pharmacokinetics of pramlintide and leptin, waist circumference, rate of change in body weight, and patient reported outcomes including for example without limitation perception of well-being related to weight change and mood. The study enrolled overweight and obese subjects with defined BMI ([…]), with enrollment statistics as provided in Table 2. […] Subjects treated with pramlintide/metreleptin lost an average of 25 pounds from the start of the 24-week study compared with an average of 17 pounds for subjects treated with pramlintide alone.
In an initial lead-in phase, all subjects received dietary instructions and treatment with pramlintide at 180 mcg BID for two weeks, followed by pramlintide at 360 mcg BID for two weeks. Subjects who completed the 4-week lead-in period and who lost 2-8 percent body weight during this period were eligible to continue the study. The term “enrolled” (Table 2) refers to subjects (N=177) receiving at least one dose of pramlintide during the lead-in period. […]

B1: murine leptin (protein, UniProt P41160 22-167, looked up)
Leptin: VPIQKVQDDTKTLIKTIVTRINDISHTQSVSAKQRVTGLDFIPGLHPILSLSKMDQTLAVYQQVLTSLPSQNVLQIANDLENLRDLLHLLAFSKSCSLPQTSGLQKPESLDGVLEASLYSTEVVALSRLQGSLQDILQQLDVSPEC
notes: murine leptin (Peprotech, catalog#450-31)
[1]; DIO prone rats, leptin dose printed 500 mg/kg/day
  body weight, DIO prone animals: ineffective
[1]; normal, lean HSD rats, leptin 500 μg/kg/day, 14 days
  body weight, normal HSD rats: significant and sustained reduction in body weight
[2]
  Mean Change in Body Weight (kg) over lead-in period: -3.97 kg
